The Kd is the concentration at which binding is half-saturated.

The source of these data is paper PMC8267817.

The assay deals with T1, phosphorylated peptide CKATQA(p)SQEY corresponding to the C-terminal end of γ-H2AX (human).
T1 sequence (peptide, phosphoserine at S139 (7th letter of the printed peptide)): CKATQASQEY
Nature of the assay: SPR; Biacore T200, 25 °C, HBS-P (10 mM HEPES pH 7.4, 150 mM NaCl, 0.05% P20); phosphopeptide immobilised by thiol coupling of its N-terminal cysteine; VHH injected 120 s; Kd from equilibrium response fitted to a 1:1 model; fractional occupancy at saturating amounts (C6 180 nM, C6B 80 nM). (In general: In SPR one partner is held on a chip, and binding of the other changes the refractive index at the surface.)

B1: C6 nanobody (purified, monovalent) (VHH)
VHH: DVQLVESGGGLVQAGDSLRLSCAASGLTFSRYAMGWFRQAPGNEREFVAVITASGRTTLYADSVKGRFTISRDNAKNTVALQMQSLKPEDTAVYYCAADYGTSRYTRRQSEYEYWGQGTQVTVSS
Regarding B1, the Kd was 11 nM.
